Assay results from patent US20210324058A1 (BRIGHAM AND WOMEN S HOSPITAL, published 2021).

Experiments:
[1] = molecular target: T1, recombinant human NEDD9 (neural precursor cell expressed, developmentally down-regulated 9), OriGene TP307200 (human, UniProt Q14511 1-834); test: microscale thermophoresis; dye-labelled NEDD9 20 nM, P-Selectin titrated 2 µM-0.5 nM, N=2
T1 construct: Bought recombinant protein; In microscale thermophoresis it was labelled with the dye NT-647-NHS; also called recombinant NEDD9; purified human NEDD9
T1 sequence (looked up): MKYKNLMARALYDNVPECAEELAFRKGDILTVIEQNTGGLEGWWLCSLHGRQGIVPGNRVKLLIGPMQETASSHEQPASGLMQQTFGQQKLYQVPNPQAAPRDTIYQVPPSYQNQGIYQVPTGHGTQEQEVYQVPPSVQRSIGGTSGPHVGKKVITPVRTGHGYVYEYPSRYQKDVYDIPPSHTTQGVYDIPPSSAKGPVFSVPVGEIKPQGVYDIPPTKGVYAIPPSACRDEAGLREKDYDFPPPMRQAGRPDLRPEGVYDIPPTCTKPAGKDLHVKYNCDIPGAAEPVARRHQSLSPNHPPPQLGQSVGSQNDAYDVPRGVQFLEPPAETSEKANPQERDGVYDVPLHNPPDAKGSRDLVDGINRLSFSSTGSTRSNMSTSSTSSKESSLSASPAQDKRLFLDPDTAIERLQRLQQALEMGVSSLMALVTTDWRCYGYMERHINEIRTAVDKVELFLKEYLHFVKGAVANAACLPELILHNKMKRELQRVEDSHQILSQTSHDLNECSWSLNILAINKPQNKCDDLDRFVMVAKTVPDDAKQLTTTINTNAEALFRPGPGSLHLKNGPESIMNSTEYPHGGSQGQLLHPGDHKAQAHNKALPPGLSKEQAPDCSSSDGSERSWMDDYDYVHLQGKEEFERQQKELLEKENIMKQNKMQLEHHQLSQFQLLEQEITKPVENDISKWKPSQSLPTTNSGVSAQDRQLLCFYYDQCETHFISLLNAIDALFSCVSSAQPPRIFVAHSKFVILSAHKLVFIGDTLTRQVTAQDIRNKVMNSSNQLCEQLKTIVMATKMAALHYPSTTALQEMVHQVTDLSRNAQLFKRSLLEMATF
Method: (§1) FIGS. 4A-E. P-Selectin binds the NEDD9 substrate domain. (A) HPAEC plasma membrane fractions were incubated with recombinant P-Selectin (0.5-1.0 μg), and liquid chromatography-mass spectrometry (LC-MS) was performed on samples following anti-P-Selectin immunoprecipitation. The MS2 spectra for each of the two detected NEDD9 peptide sequences, both within the substrate domain, are shown: K.[…].D (AA: 91-102; SEQ ID NO:9) (m z 677.36735 at retention time […]) (N9-P1) and K.[…].G (AA: 191-211; SEQ ID NO:10) (m/z 808.77731 at retention time […]) (N9-P2) (N=2 replicates for N=2 iterations). Underlining indicates a YxxP sequence. (B) HPAEC plasma membrane fractions were incubated with exogenous P-Selectin and co-immunoprecipitation for P-Selectin and NEDD9 was performed. PM, plasma membrane; UN, untreated. Varying concentrations of P-Selectin (ligand) (2 μM-0.5 nM) were co-incubated with NEDD9 (receptor) (20 nM) and microscale thermophoresis was performed to assess macromolecular interactions between these proteins. […]
(§2) Microscale Thermophoresis. […] In preliminary studies, we determined that Tris buffer containing 10% glycerol, 1% BSA, 0.05% Tween-20 and 5 mM DDT was an optimal buffer to minimize sample aggregation and adsorption in the capillary tube.³⁹ For experiments, NEDD9 (20 nM) was incubated with decreasing concentrations of P-Selectin (2 μM-0.5 nM) and MST scan was performed.

[2] = molecular target: T2, endogenous human NEDD9 of human pulmonary artery endothelial cells (lysates and plasma membrane fractions) (human, UniProt Q14511 1-834, limits assumed); test: co-immunoprecipitation from HPAEC plasma membrane fractions incubated with recombinant P-Selectin for 1 hr
T2 construct: Endogenous protein in cell material; also called NEDD9 in HPAECs; NEDD9 p55 fragment
T2 sequence (looked up): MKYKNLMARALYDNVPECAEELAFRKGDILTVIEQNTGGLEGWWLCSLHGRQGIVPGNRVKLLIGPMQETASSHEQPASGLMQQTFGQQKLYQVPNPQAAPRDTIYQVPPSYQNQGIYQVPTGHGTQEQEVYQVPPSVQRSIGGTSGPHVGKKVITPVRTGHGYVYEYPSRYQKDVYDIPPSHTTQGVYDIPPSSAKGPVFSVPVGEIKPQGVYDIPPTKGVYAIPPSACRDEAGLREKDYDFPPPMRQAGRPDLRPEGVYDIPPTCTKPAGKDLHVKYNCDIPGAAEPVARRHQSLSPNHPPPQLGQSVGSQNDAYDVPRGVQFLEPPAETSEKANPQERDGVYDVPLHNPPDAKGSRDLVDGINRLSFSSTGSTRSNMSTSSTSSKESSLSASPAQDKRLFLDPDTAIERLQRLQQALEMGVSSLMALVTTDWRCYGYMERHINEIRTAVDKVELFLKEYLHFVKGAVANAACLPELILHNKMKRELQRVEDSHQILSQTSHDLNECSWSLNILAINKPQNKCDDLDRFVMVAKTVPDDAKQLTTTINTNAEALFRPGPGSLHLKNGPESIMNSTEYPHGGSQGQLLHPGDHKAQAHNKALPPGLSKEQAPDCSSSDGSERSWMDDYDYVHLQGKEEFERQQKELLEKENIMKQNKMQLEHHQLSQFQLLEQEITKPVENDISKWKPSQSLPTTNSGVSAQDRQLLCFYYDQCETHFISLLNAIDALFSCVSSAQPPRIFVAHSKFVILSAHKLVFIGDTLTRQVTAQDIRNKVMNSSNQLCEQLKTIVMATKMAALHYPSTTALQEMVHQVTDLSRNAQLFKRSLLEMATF
Method: Magnetic beads (Bio-Rad SureBeads) were resuspended in 100 μl solution (1 mg at 10 mg/mL), magnetized, and serially washed with 1 mL PBS+0.1% Tween 20 (PBS-T). Primary antibody (10 μg) (Table 2) was added to the resuspended beads in a final volume of 200 μl and rotated at room temperature for 10 min. The beads were then magnetized and serially washed with 1 mL PBS-T before incubation with the antigen-containing HPAEC plasma membrane lysate (250-500 μl) plus recombinant P-Selectin (R&D Systems) (0.5-1.0 μg) for 1 hr at room temperature. In the cell-free immunoprecipitation experiment, the antibody-labeled beads were incubated with recombinant NEDD9 (Origene)³⁹ (5 ng) and recombinant P-Selectin (5 ng) in the presence of IgG₁ control, msAb-N9-P1 (10-20 uM), or msAb-N9-P2 (10-20 μM) for 1 hr at room temperature. […]
Next, LC-MS was performed on in-gel trypsin-digested lysates, and identified only two NEDD9 peptide sequences, both within the substrate domain: K.[…].D (AA: 91-102; SEQ ID NO:9) (N9-P1) and K.[…].G (AA: 191-211; SEQ ID NO:10) (N9-P2) (N=2 replicates for N=2 iterations) (FIG. 4A). […] Plasma membrane fractions from HPAECs were incubated with V-control or exogenous (recombinant) P-Selectin for 1 hr, and P-Selectin-NEDD9 complex formation was assessed by co-immunoprecipitation.

[3] = molecular target: T1, recombinant human NEDD9 (neural …); test: microscale thermophoresis, labelled NEDD9 20 nM, P-Selectin titrated
Method: as §1, §2

B1: recombinant P-Selectin/CD62P, R&D Systems ADP3-200 (other, human, UniProt P16109 42-771, looked up)
chain: WTYHYSTKAYSWNISRKYCQNRYTDLVAIQNKNEIDYLNKVLPYYSSYYWIGIRKNNKTWTWVGTKKALTNEAENWADNEPNNKRNNEDCVEIYIKSPSAPGKWNDEHCLKKKHALCYTASCQDMSCSKQGECLETIGNYTCSCYPGFYGPECEYVRECGELELPQHVLMNCSHPLGNFSFNSQCSFHCTDGYQVNGPSKLECLASGIWTNKPPQCLAAQCPPLKIPERGNMTCLHSAKAFQHQSSCSFSCEEGFALVGPEVVQCTASGVWTAPAPVCKAVQCQHLEAPSEGTMDCVHPLTAFAYGSSCKFECQPGYRVRGLDMLRCIDSGHWSAPLPTCEAISCEPLESPVHGSMDCSPSLRAFQYDTNCSFRCAEGFMLRGADIVRCDNLGQWTAPAPVCQALQCQDLPVPNEARVNCSHPFGAFRYQSVCSFTCNEGLLLVGASVLQCLATGNWNSVPPECQAIPCTPLLSPQNGTMTCVQPLGSSSYKSTCQFICDEGYSLSGPERLDCTRSGRWTDSPPMCEAIKCPELFAPEQGSLDCSDTRGEFNVGSTCHFSCDNGFKLEGPNNVECTTSGRWSATPPTCKGIASLPTPGVQCPALTTPGQGTMYCRHHPGTFGFNTTCYFGCNAGFTLIGDSTLSCRPSGQWTAVTPACRAVKCSELHVNKPIAMNCSNLWGNFSYGSICSFHCLEGQLLNGSAQTACQENGHWSTTVPTCQAGPLTIQEA
notes: Bought recombinant protein; Species is read from 'Purified human NEDD9 and P-Selectin/CD62P'; also called exogenous P-Selectin
Kd [1]: 13.9 nM | fold increase of NEDD9:P-Selectin complex formation against V-control [2]: 3 fold | EC50 (read off the curve) [3]: ~60 nM
